In patent US11639389B2:

Molecular target: Purified Fc fusion protein of Human CTLA4 (human)
Test: BLI (Fortebio), CTLA4-Fc immobilized by amine reactive chemistry

- Kd: 2 nM
Substance: Anti CTLA4 IgG (BioLegend A3.B10.G1) (antibody)
